This is an account of results in patent publication US20080125498A1, “TREATMENT OF NEURODEGENERATIVE DISEASES AND CONDITIONS USING PAR1 ANTAGONISTS” (priority 2001, published 2008).

The experiment has as its system PAR1. As to the kind of experiment: PI hydrolysis in hippocampal slices. It counts as cell-based, mouse. An excerpt:
PAR1 is a seven transmembrane G-protein coupled receptor that stimulates G-alpha-q to initiate phosphatidyl inositol (PI) hydrolysis. To ensure that PAR1 is functional in regions of the brain that are subject to ischemic damage in the mouse transient focal ischemia model, we tested the ability of several activators of PAR1 to initiate PI hydrolysis (Chung et al., 1997) in the hippocampus and striatum.
Since tPA activates plasminogen to form plasmin, we tested whether exogenously applied tPA could activate endogenous plasminogen in brain slices to form plasmin and activate PAR1.

The mark [1] stands for this setting: wild type hippocampus / hippocampal slices.

B1: tPA: tissue plasminogen activator; activates plasminogen to form plasmin; thrombolytic agent (protein, UniProt P00750 36-562, looked up)
Tissue-type plasminogen …: SYQVICRDEKTQMIYQQHQSWLRPVLRSNRVEYCWCNSGRAQCHSVPVKSCSEPRCFNGGTCQQALYFSDFVCQCPEGFAGKCCEIDTRATCYEDQGISYRGTWSTAESGAECTNWNSSALAQKPYSGRRPDAIRLGLGNHNYCRNPDRDSKPWCYVFKAGKYSSEFCSTPACSEGNSDCYFGNGSAYRGTHSLTESGASCLPWNSMILIGKVYTAQNPSAQALGLGKHNYCRNPDGDAKPWCHVLKNRRLTWEYCDVPSCSTCGLRQYSQPQFRIKGGLFADIASHPWQAAIFAKHRRSPGERFLCGGILISSCWILSAAHCFQERFPPHHLTVILGRTYRVVPGEEEQKFEVEKYIVHKEFDDDTYDNDIALLQLKSDSSRCAQESSVVRTVCLPPADLQLPDWTECELSGYGKHEALSPFYSERLKEAHVRLYPSSRCTSQHLLNRTVTDNMLCAGDTRSGGPQANLHDACQGDSGGPLVCLNDGRMTLVGIISWGLGCGQKDVPGVYTKVTNYLDWIRDNMRP
Consider B1, for which the PI hydrolysis entry is given as “did not increase PI hydrolysis” (plasminogen-deficient mice) and “significantly increased PI hydrolysis” under setting [1].

B2: plasmin: serine protease involved in blood clotting that can activate PAR1 (protein, UniProt P00747 20-580; P00747 581-810, looked up)
Plasmin heavy chain A: EPLDDYVNTQGASLFSVTKKQLGAGSIEECAAKCEEDEEFTCRAFQYHSKEQQCVIMAENRKSSIIIRMRDVVLFEKKVYLSECKTGNGKNYRGTMSKTKNGITCQKWSSTSPHRPRFSPATHPSEGLEENYCRNPDNDPQGPWCYTTDPEKRYDYCDILECEEECMHCSGENYDGKISKTMSGLECQAWDSQSPHAHGYIPSKFPNKNLKKNYCRNPDRELRPWCFTTDPNKRWELCDIPRCTTPPPSSGPTYQCLKGTGENYRGNVAVTVSGHTCQHWSAQTPHTHNRTPENFPCKNLDENYCRNPDGKRAPWCHTTNSQVRWEYCKIPSCDSSPVSTEQLAPTAPPELTPVVQDCYHGDGQSYRGTSSTTTTGKKCQSWSSMTPHRHQKTPENYPNAGLTMNYCRNPDADKGPWCFTTDPSVRWEYCNLKKCSGTEASVVAPPPVVLLPDVETPSEEDCMFGNGKGYRGKRATTVTGTPCQDWAAQEPHRHSIFTPETNPRAGLEKNYCRNPDGDVGGPWCYTTNPRKLYDYCDVPQCAAPSFDCGKPQVEPKKCPGR
Plasmin light chain B: VVGGCVAHPHSWPWQVSLRTRFGMHFCGGTLISPEWVLTAAHCLEKSPRPSSYKVILGAHQEVNLEPHVQEIEVSRLFLEPTRKDIALLKLSSPAVITDKVIPACLPSPNYVVADRTECFITGWGETQGTFGAGLLKEAQLPVIENKVCNRYEFLNGRVQSTELCAGHLAGGTDSCQGDSGGPLVCFEKDKYILQGVTSWGLGCARPNKPGVYVRVSRFVTWIEGVMRNN
modifications: plasmin
On to B2, for which, under setting [1], the PI hydrolysis entry was “increased PI hydrolysis”.

B3: alpha-2-antiplasmin: plasmin inhibitor (protein, UniProt P08697 40-491, looked up)
Alpha-2-antiplasmin: NQEQVSPLTLLKLGNQEPGGQTALKSPPGVCSRDPTPEQTHRLARAMMAFTADLFSLVAQTSTCPNLILSPLSVALALSHLALGAQNHTLQRLQQVLHAGSGPCLPHLLSRLCQDLGPGAFRLAARMYLQKGFPIKEDFLEQSEQLFGAKPVSLTGKQEDDLANINQWVKEATEGKIQEFLSGLPEDTVLLLLNAIHFQGFWRNKFDPSLTQRDSFHLDEQFTVPVEMMQARTYPLRWFLLEQPEIQVAHFPFKNNMSFVVLVPTHFEWNVSQVLANLSWDTLHPPLVWERPTKVRLPKLYLKHQMDLVATLSQLGLQELFQAPDLRGISEQSLVVSGVQHQSTLELSEVGVEAAAATSIAMSRMSLSSFSVNRPFLFFIFEDTTGLPLFVGSVRNPNPSAPRELKEQQDSPGNKDFLQSLKGFPRGDKLFGPDLKLVPPMEEDYPQFGSPK
For the molecule B3, the “inhibition of tPA-induced increase in PI hydrolysis” value (wild type hippocampal slices) is “inhibited the tPA-induced increase in PI hydrolysis”.
